# In patent US20160176924A1 (UNIVERSITY OF COPENHAGEN, published 2016):
# Square brackets hold non-standard residues; d marks the D form. Primed or numbered codes have the meaning given here. Ends that are not written are not given here. * marks the point of attachment. PEG6‑diacid = 4,7,10,13,16,19,22-Heptaoxapentacosane-1,25-dioic acid, O=C(O)CCOCCOCCOCCOCCOCCOCCOCCC(=O)*; PEG8‑diacid = PEG8-diacid linker: 4,7,10,13,16,19,22,25,28-nonaoxahentriacontane-1,31-dioic acid; cyclohexylethyl″ = cyclohexylethyl group on the nitrogen (N-alkyl substituent), C1CCC(CC*)CC1; PEG4‑diacid = 4,7,10,13,16-pentaoxanonadecane-1,19-dioic acid; (naphthalen-2-yl)ethyl = c1ccc2cc(CC*)ccc2c1; Cyclohexylmethyl = C1CCC(C*)CC1; NMeE = CN[C@@H](CCC(=O)O)C(=O)O; cyclohexylethyl = C1CCC(CC*)CC1; NMeA = CN[C@@H](C)C(=O)O; Bn = c1ccc(C*)cc1
# B1: ETDV (69), N-cyclohexylethyl (peptide)
# peptide: {cyclohexylethyl″}-ETDV-OH
# SMILES: CC(C)[C@H](NC(=O)[C@H](CC(=O)O)NC(=O)[C@@H](NC(=O)[C@H](CCC(=O)O)NCCC1CCCCC1)[C@@H](C)O)C(=O)O
# B2: ATDV (71), N-cyclohexylethyl (peptide)
# peptide: {cyclohexylethyl″}-ATDV-OH
# SMILES: CC(C)[C@H](NC(=O)[C@H](CC(=O)O)NC(=O)[C@@H](NC(=O)[C@H](C)NCCC1CCCCC1)[C@@H](C)O)C(=O)O
# B3: N-(3,4-Dichlorophenyl)propyl-ETAV (61) (peptide)
# peptide: ETAV
# modifications: not fully specified
# notes: The printed formula C25H37Cl2N4O8 and the comparison with 59 point to an ethyl spacer, the printed name says propyl
# B4: N-(3,4-Difluorophenyl)propyl-ETAV (62) (peptide)
# peptide: ETAV
# modifications: not fully specified
# notes: The printed formula C25H37F2N4O8 points to an ethyl spacer, the printed name says propyl
# B5: Compound 85 (ESDV dimerized with PEG8) (peptide)
# peptide: ESDV
# modifications: also: dimer: two peptides joined at N-terminal amines by amide bonds through a PEG8-diacid linker
# notes: Dimeric ligand
# B6: (IATAV)2PEG12 (87) (peptide)
# peptide: IATAV
# modifications: also: dimer: two peptides joined at N-terminal amines by amide bonds through a PEG12-diacid linker
# notes: Dimeric ligand
# B7: (IATAV)2PEG4 (88) (peptide)
# peptide: IATAV
# modifications: also: dimer: two peptides joined at N-terminal amines by amide bonds through a PEG4-diacid linker
# notes: Dimeric ligand
# B8: Compound 84 (ESDV dimerized with PEG12) (peptide)
# peptide: ESDV
# modifications: also: dimer: two peptides joined at N-terminal amines by amide bonds through a PEG12-diacid linker
# notes: Dimeric ligand
# B9: ETDV (64) (peptide)
# peptide: ETDV
# notes: also called 28 (ESDV with Ser P^-2 replaced by Thr)
# Molecular target: T1, HIS-PDZ1-2 protein (PSD-95 PDZ1-2 tandem, residues 61-249, with tag …) (human, UniProt P78352 61-249)
# Assay: ITC
row,Binder,Kd
1,"{PEG1‑diacid}-IESDV (also: dimer: two peptides N-terminally joined via PEG1-diacid, Dimeric ligand) [Compound 80 (IESDV dimerized with PEG1-diacid)]",0.46 µM
2,"{PEG2‑diacid}-IESDV (also: dimer: two peptides N-terminally joined via PEG2-diacid, Dimeric ligand) [Compound 79 (IESDV dimerized with PEG2-diacid)]",0.22 µM
3,"{PEG6‑diacid}-IESDV (also: dimer: two peptides N-terminally joined via PEG6-diacid, Dimeric ligand) [(IESDV)2PEG6 (77)]",0.039 µM
4,"{PEG8‑diacid}-IESDV (also: dimer: two peptides N-terminally joined via PEG8-diacid, Dimeric ligand) [(IESDV)2PEG8 (76)]",0.12 µM

# Molecular target: T2, HIS-PDZ1 protein (PSD-95 PDZ1, residues 61-151, with tag …) (human, UniProt P78352 61-151)
# T2 construct: expressed in E. coli
# Assay: FP competition, fluorescent NR2B probe
Binder,binding result,fold more potent than WT peptide 1
ESEV [Compound 23 (ESDV with Asp P^-1 replaced by Glu)],binds,–
[NMeE]TDV [EMeTDV (36)],–,~3 fold
ESQV [Compound 22 (ESDV with Asp P^-1 replaced by Gln)],binds,–
[NMeE]TQV [EMeTQV (39)],–,~3 fold

# Molecular target: T3, HIS-PDZ2 protein (PSD-95 PDZ2, residues 155-249, with tag …) (human, UniProt P78352 155-249)
# Assay: FP competition, fluorescent NR2B probe
row,Binder,binding result
1,ESEV [Compound 23 (ESDV with Asp P^-1 replaced by Glu)],binds
2,ESQV [Compound 22 (ESDV with Asp P^-1 replaced by Gln)],binds

# Molecular target: T2, HIS-PDZ1 protein (PSD-95 PDZ1, residues …)
# Assay: FP competition, fluorescent NR2B probe
# Remark: another data set of the same source
row,Binder,Ki
1,ATAV [ATAV (68)],64 µM
2,"cyclohexylethyl-ATAV [ATAV (73), N-cyclohexylethyl]",8.9 µM
3,B1,1.8 µM
4,cyclohexylethyl-ETAV [N-Cyclohexylethyl-ETAV (56)],0.94 µM
5,QTAV [QTAV (67)],112 µM
6,B2,5.8 µM
7,"cyclohexylethyl-QTAV [QTAV (72), N-cyclohexylethyl]",21 µM
8,ATDV [ATDV (66)],30 µM
9,QTDV [QTDV (65)],58 µM

# Molecular target: T3, HIS-PDZ2 protein (PSD-95 PDZ2, residues …)
# Assay: FP competition, fluorescent NR2B probe
# Remark: another data set of the same source
row,Binder,Ki
1,ATAV [ATAV (68)],73 µM
2,"cyclohexylethyl-ATAV [ATAV (73), N-cyclohexylethyl]",8.1 µM
3,B1,0.75 µM
4,cyclohexylethyl-ETAV [N-Cyclohexylethyl-ETAV (56)],0.45 µM
5,QTAV [QTAV (67)],108 µM
6,B2,3.6 µM
7,"cyclohexylethyl-QTAV [QTAV (72), N-cyclohexylethyl]",12 µM
8,ATDV [ATDV (66)],38 µM
9,QTDV [QTDV (65)],60 µM

# Molecular target: T4, HIS-PDZ3 protein (PSD-95 PDZ3, residues 309-401, with tag …) (human, UniProt P78352 309-401)
# Assay: FP competition, fluorescent CRIPT probe
row,Binder,Ki
1,Bn-ETAV [N-Benzyl-ETAV (58)],63 µM
2,Cyclohexylmethyl-ETAV [N-Cyclohexylmethyl-ETAV (55)],21 µM
3,cyclohexylethyl-ETAV [N-Cyclohexylethyl-ETAV (56)],11 µM
4,B3,6.7 µM
5,{(naphthalen-2-yl)ethyl}-ETAV [N-(Naphtalene-2-yl)ethyl-ETAV (63)],10 µM
6,Et-ETAV [N-Ethyl-ETAV (52)],69 µM
7,B4,7.8 µM
8,ETAV [ETAV (51)],260 µM

# Molecular target: T1, HIS-PDZ1-2 protein (PSD-95 PDZ1-2 …)
# Assay: FP competition, fluorescent NR2B probe; exact Ki not calculable
row,Binder,Ki
1,"{PEG6‑diacid}-IESDV (also: dimer: two peptides N-terminally joined via PEG6-diacid, Dimeric ligand) [(IESDV)2PEG6 (77)]",~0.1 µM
2,"{PEG8‑diacid}-IESDV (also: dimer: two peptides N-terminally joined via PEG8-diacid, Dimeric ligand) [(IESDV)2PEG8 (76)]",~0.1 µM

# Molecular target: T3, HIS-PDZ2 protein (PSD-95 PDZ2, residues …)
# Assay: FP competition, fluorescent NR2B probe
# Remark: another data set of the same source
row,Binder,Ki
1,B5,19 µM
2,"{PEG1‑diacid}-IESDV (also: dimer: two peptides N-terminally joined via PEG1-diacid, Dimeric ligand) [Compound 80 (IESDV dimerized with PEG1-diacid)]",4.7 µM
3,"{PEG4‑diacid}-IAT[NMeA]V-OH (also: dimer: two peptides N-terminally joined via PEG4-diacid, Dimeric ligand) [(IATAMeV)2PEG4 (90)]",103 µM
4,IAT[NMeA]V [IATAMeV (89)],104 µM
5,B6,13 µM
6,"{PEG2‑diacid}-IESDV (also: dimer: two peptides N-terminally joined via PEG2-diacid, Dimeric ligand) [Compound 79 (IESDV dimerized with PEG2-diacid)]",4.7 µM
7,"{PEG6‑diacid}-IESDV (also: dimer: two peptides N-terminally joined via PEG6-diacid, Dimeric ligand) [(IESDV)2PEG6 (77)]",2 µM
8,"{PEG8‑diacid}-IESDV (also: dimer: two peptides N-terminally joined via PEG8-diacid, Dimeric ligand) [(IESDV)2PEG8 (76)]",2.6 µM

# Molecular target: T1, HIS-PDZ1-2 protein (PSD-95 PDZ1-2 …)
# Assay: FP competition, fluorescent NR2B probe
row,Binder,Ki
1,B5,1 µM
2,"{PEG1‑diacid}-IESDV (also: dimer: two peptides N-terminally joined via PEG1-diacid, Dimeric ligand) [Compound 80 (IESDV dimerized with PEG1-diacid)]",0.56 µM
3,"{PEG4‑diacid}-IAT[NMeA]V-OH (also: dimer: two peptides N-terminally joined via PEG4-diacid, Dimeric ligand) [(IATAMeV)2PEG4 (90)]",13 µM
4,IAT[NMeA]V [IATAMeV (89)],142 µM
5,B6,1 µM
6,B7,1.1 µM
7,"{PEG2‑diacid}-IESDV (also: dimer: two peptides N-terminally joined via PEG2-diacid, Dimeric ligand) [Compound 79 (IESDV dimerized with PEG2-diacid)]",0.27 µM
8,B8,0.92 µM

# Molecular target: T2, HIS-PDZ1 protein (PSD-95 PDZ1, residues …)
# Assay: FP competition, fluorescent NR2B probe
# Remark: another data set of the same source
row,Binder,Ki
1,Bn-ETAV [N-Benzyl-ETAV (58)],7.2 µM
2,Cyclohexylmethyl-ETAV [N-Cyclohexylmethyl-ETAV (55)],1 µM
3,cyclohexylethyl-ETAV [N-Cyclohexylethyl-ETAV (56)],0.94 µM
4,B3,2.4 µM
5,{(naphthalen-2-yl)ethyl}-ETAV [N-(Naphtalene-2-yl)ethyl-ETAV (63)],1 µM
6,Et-ETAV [N-Ethyl-ETAV (52)],9.3 µM
7,B4,0.98 µM
8,butyl-ETAV [N-Butyl-ETAV (54)],8.4 µM

# Molecular target: T3, HIS-PDZ2 protein (PSD-95 PDZ2, residues …)
# Assay: FP competition, fluorescent NR2B probe
# Remark: another data set of the same source
row,Binder,Ki
1,Bn-ETAV [N-Benzyl-ETAV (58)],5.2 µM
2,Phenylethyl-ETAV [N-Phenylethyl-ETAV (59)],1.6 µM
3,phenylpropyl-ETAV [N-Phenylpropyl-ETAV (60)],3.1 µM
4,Cyclohexylmethyl-ETAV [N-Cyclohexylmethyl-ETAV (55)],1.3 µM
5,cyclohexylethyl-ETAV [N-Cyclohexylethyl-ETAV (56)],0.45 µM
6,B3,1.1 µM
7,{(naphthalen-2-yl)ethyl}-ETAV [N-(Naphtalene-2-yl)ethyl-ETAV (63)],0.95 µM
8,Et-ETAV [N-Ethyl-ETAV (52)],9.6 µM
9,B4,1 µM
10,butyl-ETAV [N-Butyl-ETAV (54)],4 µM

# Molecular target: T4, HIS-PDZ3 protein (PSD-95 PDZ3, residues …)
# Assay: FP competition, fluorescent CRIPT probe
# Remark: another data set of the same source
Binder,Ki,binding result
ATAV [ATAV (68)],400 µM,–
"{cyclohexylethyl″}-QTDV-OH [QTDV (70), N-cyclohexylethyl]",–,no binding
"cyclohexylethyl-ATAV [ATAV (73), N-cyclohexylethyl]",89 µM,–
B1,–,no binding
cyclohexylethyl-ETAV [N-Cyclohexylethyl-ETAV (56)],11 µM,–
B9,–,no binding
"cyclohexylethyl-QTAV [QTAV (72), N-cyclohexylethyl]",141 µM,–
ETAV [ETAV (51)],260 µM,–
ATDV [ATDV (66)],–,no binding
QTDV [QTDV (65)],–,no binding
